Results on 3 molecules are retold here after patent US20240109955A1.

Common to all, as to experiment: cell-based or functional assay
Assay [1] concerns the target SARS-CoV-2 spike (S) protein, Omicron sublineage BQ.1 (SARS-CoV-2).
For assay [2], the target named is SARS-CoV-2 spike (S) protein, Omicron sublineage XBB (SARS-CoV-2).
For assay [3], the target named is SARS-CoV-2 spike (S) protein, Omicron sublineage BQ.1.1 (SARS-CoV-2).
Assay [4] has as its target SARS-CoV-2 spike (S) protein, Omicron sublineage BA.4/5 (SARS-CoV-2).
Assay [5] deals with SARS-CoV-2 spike (S) protein, Omicron sublineage BA.2.75.2 (SARS-CoV-2).

B1: MX1065 (trispecific antibody)
chain 1: QTVVTQEPSFSVSPGGTVTLTCGLSSGSVSTAYFPSWYQQTPGQAPRTLIYGTNTRSSGVPDRFSGSILGNKAALTITGAQADDESDYYCVLYMGRGIVVFGGGTKLTVLGGSSGEIVMTQSPAILSVSPGERATLSCRASQSVAINLAWYQQKPGQAPRLLIYAASSRATGIPGRFSGSGSETNFTLTISSLQSGDFAVYYCQQYITWPPSYTFGQGTKLEIKGGGGSGGSGSGGGGSASGSGEVQLVESGGALIQPGGSLRLSCAASGIIVSANYMSWVRQAPGKGLEWVSVIYSGGSTFYADSVKGRFTISRDNSKNTLYLEMNSLRAEDTAVYYCARDAPILGVSDWGQGTLVTVSSGGSSGQVQLVESGGGVVQPGRSLRLSCAASGFTLSSYGMHWVRQAPGKGLEWVAVISYDGSNKYYVDSVKGRFTISRDNSKNTLYLQMNSLRAEDTAVYYCRWAYWELLPDYYYGMDVWGQGTTVTVSSASGGSGDKTHTCPPCPAPELLGGPSVFLFPPKPKDTLMISRTPEVTCVVVDVSHEDPEVKFNWYVDGVEVHNAKTKPREEQYNSYVVSVLTVLHQDWLNGKEYKCKVSNKALPAPIEKTISKAKGQPREPQVYTLPPCRDELTKNQVSLWCLVKGFYPSDIAVEWESNGQPENNYKTTPPVLDSDGSFFKKLTVDKSRWQQGNVFSCSVLHEALHSHYTQKSLSLSPG
chain 2: QTVVTQEPSFSVSPGGTVTLTCGLSSGSVSTAYFPSWYQQTPGQAPRTLIYGTNTRSSGVPDRFSGSILGNKAALTITGAQADDESDYYCVLYMGRGIVVFGGGTKLTVLGGSSGDTVMTQSPLSLPVTPGEPASISCRSSQSLLNSNGYNYLDWYVQKPGQSPQLLIYLGSNRASGVPDRFSGSGSGTDFTLKISRVEAEDVGVYYCMQPLQTPLFTFGPGTKVEIKGGGGSGGSGSGGGGSASGSGQVTLRESGPALVKPTQTLTLTCTFSGFSLSTRGVCVSWIRQPPGKALEWLAFIDWDDDKYYNTSLKTRLTISKDTSKNQVVLTMTNVHPVDTATYYCARISSHHGSSWCTTFDYWGQGALVTVSAGGSSGQVQLVESGGGVVQPGRSLRLSCAASGFTLSSYGMHWVRQAPGKGLEWVAVISYDGSNKYYVDSVKGRFTISRDNSKNTLYLQMNSLRAEDTAVYYCRWAYWELLPDYYYGMDVWGQGTTVTVSSASGGSGDKTHTCPPCPAPELLGGPSVFLFPPKPKDTLMISRTPEVTCVVVDVSHEDPEVKFNWYVDGVEVHNAKTKPREEQYNSYVVSVLTVLHQDWLNGKEYKCKVSNKALPAPIEKTISKAKGQPREPQVCTLPPSRDELTKNQVSLSCAVKGFYPSDIAVEWESNGQPENNYKTTPPVLDSDGSFFLVSKLTVDKSRWQQGNVFSCSVLHEALHSHYTQKSLSLSPG
For B1, the figures for the IC50, pseudovirus neutralization in assay [1], in assay [2] and in assay [3] were 0.0335 µg/mL, 0.0125 µg/mL and 0.014 µg/mL, respectively. The values for the IC80, pseudovirus neutralization in assay [1], in assay [2] and in assay [3] were 0.086 µg/mL, 0.0167 µg/mL and 0.0206 µg/mL, respectively.

B2: MX1066 (trispecific antibody)
chain 1: QTVVTQEPSFSVSPGGTVTLTCGLSSGSVSTAYFPSWYQQTPGQAPRTLIYGTNTRSSGVPDRFSGSILGNKAALTITGAQADDESDYYCVLYMGRGIVVFGGGTKLTVLGGSSGEIVMTQSPAILSVSPGERATLSCRASQSVAINLAWYQQKPGQAPRLLIYAASSRATGIPGRFSGSGSETNFTLTISSLQSGDFAVYYCQQYITWPPSYTFGQGTKLEIKGGGGSGGSGSGGGGSASGSGEVQLVESGGALIQPGGSLRLSCAASGIIVSANYMSWVRQAPGKGLEWVSVIYSGGSTFYADSVKGRFTISRDNSKNTLYLEMNSLRAEDTAVYYCARDAPILGVSDWGQGTLVTVSSGGSSGQVQLVESGGGVVQPGRSLRLSCAASGFTLSSYGMHWVRQAPGKGLEWVAVISYDGSNKYYVDSVKGRFTISRDNSKNTLYLQMNSLRAEDTAVYYCRWAYWELLPDYYYGMDVWGQGTTVTVSSASGGSGDKTHTCPPCPAPELLGGPSVFLFPPKPKDTLMISRTPEVTCVVVDVSHEDPEVKFNWYVDGVEVHNAKTKPREEQYNSYVVSVLTVLHQDWLNGKEYKCKVSNKALPAPIEKTISKAKGQPREPQVYTLPPCRDELTKNQVSLWCLVKGFYPSDIAVEWESNGQPENNYKTTPPVLDSDGSFFKKLTVDKSRWQQGNVFSCSVLHEALHSHYTQKSLSLSPG
chain 2: DTVMTQSPLSLPVTPGEPASISCRSSQSLLNSNGYNYLDWYVQKPGQSPQLLIYLGSNRASGVPDRFSGSGSGTDFTLKISRVEAEDVGVYYCMQPLQTPLFTFGPGTKVEIKGGSSGQTVVTQEPSFSVSPGGTVTLTCGLSSGSVSTAYFPSWYQQTPGQAPRTLIYGTNTRSSGVPDRFSGSILGNKAALTITGAQADDESDYYCVLYMGRGIVVFGGGTKLTVLGGGGSGGSGSGGGGSASGSGQVQLVESGGGVVQPGRSLRLSCAASGFTLSSYGMHWVRQAPGKGLEWVAVISYDGSNKYYVDSVKGRFTISRDNSKNTLYLQMNSLRAEDTAVYYCRWAYWELLPDYYYGMDVWGQGTTVTVSSGGSSGQVTLRESGPALVKPTQTLTLTCTFSGFSLSTRGVCVSWIRQPPGKALEWLAFIDWDDDKYYNTSLKTRLTISKDTSKNQVVLTMTNVHPVDTATYYCARISSHHGSSWCTTFDYWGQGALVTVSAASGGSGDKTHTCPPCPAPELLGGPSVFLFPPKPKDTLMISRTPEVTCVVVDVSHEDPEVKFNWYVDGVEVHNAKTKPREEQYNSYVVSVLTVLHQDWLNGKEYKCKVSNKALPAPIEKTISKAKGQPREPQVCTLPPSRDELTKNQVSLSCAVKGFYPSDIAVEWESNGQPENNYKTTPPVLDSDGSFFLVSKLTVDKSRWQQGNVFSCSVLHEALHSHYTQKSLSLSPG
Take B2: the IC50, pseudovirus neutralization in assay [1] came to 0.0359 µg/mL; in assay [2], 0.0287 µg/mL; in assay [3] it was 0.0284 µg/mL. For the same molecule, the IC80, pseudovirus neutralization in assay [1] worked out at 0.0413 µg/mL; in assay [2], 0.0298 µg/mL; in assay [3], 0.0307 µg/mL.

B3: MX1056 (trispecific antibody)
chain 1: DTVMTQSPLSLPVTPGEPASISCRSSQSLLNSNGYNYLDWYVQKPGQSPQLLIYLGSNRASGVPDRFSGSGSGTDFTLKISRVEAEDVGVYYCMQPLQTPLFTFGPGTKVEIKGGSSGEIVMTQSPAILSVSPGERATLSCRASQSVAINLAWYQQKPGQAPRLLIYAASSRATGIPGRFSGSGSETNFTLTISSLQSGDFAVYYCQQYITWPPSYTFGQGTKLEIKGGGGSGGSGSGGGGSASGSGEVQLVESGGALIQPGGSLRLSCAASGIIVSANYMSWVRQAPGKGLEWVSVIYSGGSTFYADSVKGRFTISRDNSKNTLYLEMNSLRAEDTAVYYCARDAPILGVSDWGQGTLVTVSSGGSSGQVTLRESGPALVKPTQTLTLTCTFSGFSLSTRGVCVSWIRQPPGKALEWLAFIDWDDDKYYNTSLKTRLTISKDTSKNQVVLTMTNVHPVDTATYYCARISSHHGSSWCTTFDYWGQGALVTVSAASGGSGDKTHTCPPCPAPELLGGPSVFLFPPKPKDTLMISRTPEVTCVVVDVSHEDPEVKFNWYVDGVEVHNAKTKPREEQYNSYVVSVLTVLHQDWLNGKEYKCKVSNKALPAPIEKTISKAKGQPREPQVYTLPPCRDELTKNQVSLWCLVKGFYPSDIAVEWESNGQPENNYKTTPPVLDSDGSFFKKLTVDKSRWQQGNVFSCSVLHEALHSHYTQKSLSLSPG
chain 2: DTVMTQSPLSLPVTPGEPASISCRSSQSLLNSNGYNYLDWYVQKPGQSPQLLIYLGSNRASGVPDRFSGSGSGTDFTLKISRVEAEDVGVYYCMQPLQTPLFTFGPGTKVEIKGGSSGQTVVTQEPSFSVSPGGTVTLTCGLSSGSVSTAYFPSWYQQTPGQAPRTLIYGTNTRSSGVPDRFSGSILGNKAALTITGAQADDESDYYCVLYMGRGIVVFGGGTKLTVLGGGGSGGSGSGGGGSASGSGQVQLVESGGGVVQPGRSLRLSCAASGFTLSSYGMHWVRQAPGKGLEWVAVISYDGSNKYYVDSVKGRFTISRDNSKNTLYLQMNSLRAEDTAVYYCRWAYWELLPDYYYGMDVWGQGTTVTVSSGGSSGQVTLRESGPALVKPTQTLTLTCTFSGFSLSTRGVCVSWIRQPPGKALEWLAFIDWDDDKYYNTSLKTRLTISKDTSKNQVVLTMTNVHPVDTATYYCARISSHHGSSWCTTFDYWGQGALVTVSAASGGSGDKTHTCPPCPAPELLGGPSVFLFPPKPKDTLMISRTPEVTCVVVDVSHEDPEVKFNWYVDGVEVHNAKTKPREEQYNSYVVSVLTVLHQDWLNGKEYKCKVSNKALPAPIEKTISKAKGQPREPQVCTLPPSRDELTKNQVSLSCAVKGFYPSDIAVEWESNGQPENNYKTTPPVLDSDGSFFLVSKLTVDKSRWQQGNVFSCSVLHEALHSHYTQKSLSLSPG
On to B3, for which the IC50, pseudovirus neutralization in assay [4] came out at 0.00412 µg/mL; in assay [5], 0.00253 µg/mL; in assay [1] it was 0.013 µg/mL; in assay [2], 0.00713 µg/mL; in assay [3], 0.00584 µg/mL. For the same molecule, the IC80, pseudovirus neutralization was 0.00589 µg/mL in assay [4]; 0.00992 µg/mL in assay [5]; 0.0368 µg/mL in assay [1]; 0.0236 µg/mL in assay [2]; 0.0419 µg/mL in assay [3].
